One experiment has as its system Wistar rats. Put plainly: Administration of nesfatin-1, nesfatin-2, nesfatin-3, nesfatin-2/3 into the third ventricle, amount of food intake. It is filed as in vivo, rat. As to the method:
Samples used for intracerebral administration were PBS alone (vehicle group), or nesfatin-1, nesfatin-2, nesfatin-3 or nesfatin-2/3 prepared in Working Example 10 each dissolved in PBS, and 25 pmol was administered per individual into the third ventricle immediately before the dark period. Rats used were Wistar rats (purchased from Nippon SLC) and were housed as in Working Example 6, and among 8-9 week-old male Wistar rats, those individuals weighing 200-250 g were selected and used (N=5). The technique of intraventricular administration and the measurement of the amount of food intake in rats were carried out in a method similar to those in Working Example 6. In the measurement of the amount of food intake, the reduced amount of food at 1 hour after administration (0-1 hr) and 2 hours after administration (1-3 hrs) was determined as food intake.
In the same condition above, 1, 5 or 25 pmol of nesfatin-1 as a sample was administered per rat individual into the third ventricle immediately before the dark period. In this experiment, the amount of food intake was determined at 1 hour after administration (0-1 hr).
The experimental condition was similar to that in Working Example 12, and 5 pmol of nesfatin-1 was administered into the third ventricle of the rat brain immediately before the start of the dark period, the amount decreased of the food (the amount of food intake) during 1 hour immediately after administration (0-1 hr), during 2 hours from 1 hour after the administration (1-3 hr), during 3 hours from 3 hours after the administration (3-6 hr), and during 6 hours from 6 hours after the administration (6-12 hr) was measured as the amount of food intake. As the control group, the amount of food intake by individuals that received physiological saline alone was measured.
The experimental condition was similar to that in Working Example 12, and for a group that received 5 pmol of nesfatin-1 alone into the third ventricle of the rat brain immediately before the start of the dark period and a group that received 5 pmol of nesfatin-1 and 8 μg of anti-nesfatin-1 antibody (nesfatin-1 IgG), the amount of food intake for 1 hour after administration was measured and compared to that for the control group (physiological saline alone was administered). Also, for a group that received only leptin (Rat leptin: R & D Systems, 598-LP-01M) (1 μg) which is known to have an activity of suppressing food intake by intraventricular administration and a group that received leptin and anti-nesfatin-1 antibody, its effect on food intake was also studied.

A further experiment concerns Zucker +/+ (Lean) rats. Put plainly: nesfatin-1 administration into the third ventricle of Zucker +/+ (Lean) rats, food intake. It is filed as in vivo, rat. The conditions noted are these: recombinant mouse nesfatin-1 5 pmol. The procedure:
(§1) As rats, 8 week-old male Zucker fa/fa (Zucker) rats and Zucker +/+(Lean) rats as the control animal were purchased from Nippon Charles River, and were housed in a cycle of 12 hours of the light period from 6 a.m. to 6 p.m. and 12 hours of the dark period from 6 p.m. to 6 a.m. the next morning and fed a powder food (Nippon Clea, CE-2), and kept at 22° C., and throughout the experiment period, a similar condition was continued in housing. After preliminary housing of the purchased rats for over one week, individuals weighing 200-250 g were selected from among 9 to 10 week-old individuals.
(§2) The sample used for administration was one in which the recombinant mouse nesfatin-1 prepared in Working Example 16 was dissolved to 5 pmol in 5 μl of PBS, and as the control sample physiological saline (Saline) was used. Five μl of the samples prepared were administered into the third ventricle of each rat for the group of five each of Zucker rats and the Lean rats per group (the Zucker/nesfatin-1 group, the Lean/nesfatin-1 group, the Zucker/Saline group, the Lean/Saline group). […]
(§3) After intraventricular administration, the amount of food intake was determined by measuring the amount decreased of the powder food for each rat during 0-1 hour, 1-3 hours and 3-6 hours. […]

In a further experiment the test system is rats. Put plainly: Continuous administration of nesfatin-1 into the rat ventricle, weight of adipose tissue. As to conditions: 5 pmol per day, third ventricle, 10 days; vs saline. The experiment is classed as in vivo. The procedure: Nesfatin-1 (5 pmol per day) or physiological saline alone (the control group) was administered into the third ventricle of a rat using an osmotic pump for 10 consecutive days (5 and 4 rats were used per group). Intraventricular administration into rats by the osmotic pump was carried out in a manner similar to that in Working Example 13.
After the administration of nesfatin-1 or physiological saline alone for 10 days, each rat was sacrificed, dissected to excise all of the abdominal subcutaneous adipose tissue, the epididymal adipose tissue (these are white adipose tissue) and the retroperitoneal brown adipose tissue, and the weight of them was measured. Also, the gastrocnemial muscles of the bilateral hind legs were harvested and the weight of them was measured. From the weight of the tissues measured, their ratio to the body weight of each individual was determined (tissue weight/body weight, mg/g). For testing of significant difference, analysis of variance was used.

In a further experiment the test system is mice. Put plainly: Intraperitoneal and subcutaneous administration of nesfatin-1 to mice, food intake. It is filed as in vivo, mouse. The procedure:
The sample used in the administration was the recombinant mouse nesfatin-1 prepared in Working Example 16 dissolved in 200 μl of physiological saline so as to contain 10 nmol, and as the control sample, physiological saline (Saline) alone was used. Using a tuberculin syringe equipped with a 25G needle, 200 μl each of the samples was administered once into the abdominal cavity or the hypodermis of the back of each mouse, and the time of administration was immediately before the start (6 p.m.) of the dark period. Other conditions were similar to those in Working Example 18.

For another experiment, the system named is Agouti-yellow mice. Put plainly: Intraperitoneal administration of nesfatin-1 to Agouti-yellow mice, food intake. The experiment is classed as in vivo, mouse. The conditions noted are these: nesfatin-1 (10 pmol) ip, 0-3 hours. From the text:
In the experiment on the animal model of obesity, C57BL/6J mice were used as the control group and Agouti-yellow mice were used as the animal model of obesity, and these animals were purchased from Nippon Charles River (Jackson Lab.). The housing condition and the week age of the mice used were similar to those for the ICR mice, whereas individuals weighing 25-28 g for the control group mice and individuals weighing 31-38 g for the Agouti-yellow mice were selected and used. […] Other conditions were similar to those in the above.
Each mouse that received administration was placed in an individual cage, and during 0-3 hours after the administration the weight decreased of the pellet food was measured to determine the amount of food intake. For testing of significant difference, analysis of variance was used.

The next experiment concerns Zucker fa/fa rats. Put plainly: nesfatin-1 administration into the third ventricle of Zucker fa/fa rats, food intake. It is filed as in vivo, rat. The conditions noted are these: recombinant mouse nesfatin-1 5 pmol. The procedure:
as §1, §2, §3

Setting [1] is: 0-1 hour and 1-3 hours, P<0.001 vs Saline.

B1: nesfatin-1: 82-residue peptide, amino acid Nos. 25 to 106 of nesfatin (SEQ ID NO: 15), solid-phase synthesis (peptide, listed as Rattus norvegicus)
chain: VPIDVDKTKVHNVEPVESARIEPPDTGLYYDEYLKQVIEVLETDPHFREKLQKADIEEIRSGRLSQELDLVSHKVRTRLDEL
With B1, the “amount of food intake” value with Wistar rats (5 pmol into the third ventricle, 0-1 hr, 1-3 hr and 3-6 hr, p<0.01 vs control) is “Significant decreases in the amount of food intake”; with Wistar rats (5 pmol into the third ventricle, 6-12 hr, p<0.01 vs control) it was “an increase in the amount of food intake”; with Wistar rats (5 pmol or 25 pmol intraventricular, 0-1 hr), “significant decreased amount of food intake”; in the experiment with Wistar rats (25 pmol into the third ventricle before dark period, 0-1 hr and 1-3 hr, vs control) it was “marked effect on the suppression of feeding”; in the experiment with Wistar rats (1, 5 or 25 pmol per rat intraventricular, 0-1 hr, vs saline) it was “decreased amount of food intake, with the increased amount of the administered nesfatin-1”; in the experiment with Zucker +/+ (Lean) rats (setting [1]) it was “decreased”. Besides, the “amount of food intake” value in the experiment on Zucker +/+ (Lean) rats (3-6 hours) is reported as “No difference”; in the experiment on mice (10 nmol intraperitoneally (ip), 0-3 hours, P<0.05 vs saline), “statistically significant decrease”; with mice (10 nmol intraperitoneally (ip), 0-14 hours), “the decrease in the amount of food intake was not significant”; with mice (10 nmol subcutaneously (sc), 0-3 hours) it was “tended to decrease”; in the experiment with mice (10 nmol subcutaneously (sc), 0-14 hours, P<0.005 vs saline), “the decrease was significant”; with Agouti-yellow mice it was “significantly decreased”. Besides, the “amount of food intake” value in the experiment with Zucker fa/fa rats (setting [1]) is given as “significant reduction”; in the experiment with Zucker fa/fa rats (3-6 hours, P<0.05), “significant reduction”. Further, in the experiment with rats, the “ratio of tissue weight to body weight, abdominal subcutaneous adipose tissue” value is “significant decreases”. Further, in the experiment with rats, the “ratio of tissue weight to body weight, brown adipose tissue” value was “no significant difference”. Besides, in the experiment on rats, the “ratio of tissue weight to body weight, epididymal adipose tissue” value is given as “significant decreases”. Moreover, the “ratio of tissue weight to body weight, gastrocnemial muscle” value in the experiment with rats is reported as “no significant difference”. Besides, in the experiment with rats, the “ratio of tissue weight to body weight, mesenteric adipose tissue” value was “significant decreases”. The “ratio of tissue weight to body weight, retroperitoneal adipose tissue” value in the experiment with rats is “tended to decrease but no significant difference”.

The values above are taken from US7795390B2, “Biological substance nesfatin and its related substances and uses thereof” (Teijin Pharma Limited, priority 2005, dated 2010).
